Experimental data as given in article PMC2156126.

Target: GST-VCA (GST fusion of human N-WASP residues 392-505) on glutathione Sepharose (human) (UniProt O00401)
Experiment: pull-down

GST-VCA (GST fusion of human N-WASP residues 392-505) on glutathione Sepharose (human), sequence (O00401 392-505): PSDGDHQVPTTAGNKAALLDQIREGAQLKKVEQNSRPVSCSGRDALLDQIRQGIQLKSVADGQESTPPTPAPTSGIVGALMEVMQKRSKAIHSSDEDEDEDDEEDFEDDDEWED

percent depleted from the extract by the beads: > 80%
Substance: Arp2/3 complex endogenous in human platelet extracts (from UniProt P61158;P61160;O15145)
